Values quoted from earlier work in publication PMC3955120 (Journal of chromatography. B, Analytical technologies in …, 2013).
Where no end group is shown, it is not given here.

Details: humans, i.v. infusion of kisspeptin-54, RIA, monoexponential decline

kisspeptin-54 (GTSLSPPPESSGSPQQPGLSAPHSRQIPAPQGAVLVQREKDLPNYNWNSFGLRF-NH2; ends and bridges not checked; UniProt Q15726 68-121, looked up)
half-life of post steady-state plasma kisspeptin-IR: 27.6 min
